Measured values taken from patent publication US20030129688A1 (published 2003).
Residue numbers refer to the chain shown, from its start. Names may count otherwise. Where two headings read alike, the source gives them in different places. Ends that are not written are not given here.

How the values were obtained:
[1] = biological target: ErbB-2/3 receptor-Ig fusion (human, UniProt P04626 23-652; P04626 23-645; P21860 20-643; P04626 23-645); assay: phage ELISA, competition with soluble ErbB-2/3-Ig
Protocol: (§1) Microtiter plates (Nunc Maxisorp™ 96-well plates, Inter Med, Denmark) for phage ELISA were prepared as follows. The wells were precoated overnight with 0.5 μg of rabbit anti-human IgG (Fc gamma fragment-specific) antibodies (Jackson Immunoresearch, West Grove, Pa.) in 100 μL 50 mM NaCO₃ (pH 9.6). The wells were blocked for 30 minutes (min) with 200 μL PBS containing 0.1% bovine serum albumin (BSA) and rinsed with wash buffer (PBS containing 0.05% Tween 20™). The wells were then coated with 0.1 μg ErbB-2/3-Ig in binding buffer (PBS, 0.1% BSA, 0.05% Tween 20™) for 1 h, and washed again.
(§2) Following incubation for 2 h at room temperature, plates were washed extensively and treated with a 1:900 dilution of anti-M13 horseradish peroxidase conjugate (Pharmacia, Piscataway, N.J.) for 20 min. The amount of phage binding was determined by assaying horseradish peroxidase activity using o-phenylenediamine dihydrochloride) substrate solution (Sigma Chemical Company, St. Louis, Mo.).

[2] = biological target: T1, ErbB-3 receptor-Ig fusion (human, UniProt P21860 20-643; P21860 20-636); assay: phage ELISA, competition with soluble ErbB-3-Ig
[3] = biological target: T2, ErbB-4 receptor-Ig fusion (human, UniProt Q15303 26-651; Q15303 26-640); assay: phage ELISA, competition with soluble ErbB-4-Ig
[4] = biological target: T1, ErbB-3 receptor-Ig fusion; assay: phage ELISA, competition with soluble ErbB-3-Ig; reference
[5] = biological target: T2, ErbB-4 receptor-Ig fusion; assay: phage ELISA, competition with soluble ErbB-4-Ig; reference
[6] = biological target: ErbB-3 receptor-Ig fusion (human) (UniProt P21860); assay: phage ELISA, competition with soluble ErbB-3-Ig
[7] = biological target: ErbB-4 receptor-Ig fusion (human) (UniProt Q15303); assay: phage ELISA, competition with soluble ErbB-4-Ig
[8] = biological target: ErbB-3 receptor-Ig fusion (human) (UniProt P21860); assay: 125I-HRG-β1 177-244 displacement, ErbB-3-Ig on plate
[9] = biological target: ErbB-4 receptor-Ig fusion (human) (UniProt Q15303); assay: 125I-HRG-β1 177-244 displacement, ErbB-4-Ig on plate
[10] = biological target: T1, ErbB-3 receptor-Ig fusion; assay: phage ELISA, competition with soluble ErbB-3-Ig; remark: listed apart in the source
Protocol: as §1, §2

[11] = biological target: ErbB-2/3 heterodimers on MCF7 breast cancer carcinoma cells (UniProt P04626); assay: cell-based or functional assay
[12] = biological target: ErbB-2/3 receptor-Ig fusion (human) (UniProt P04626); assay: 125I-HRG displacement, ErbB-2/3-Ig on plate
[13] = biological target: ErbB-2/3 receptor-Ig fusion (human) (UniProt P04626); assay: phage ELISA, competition with soluble ErbB-2/3-Ig

T2 sequence (Q15303 other isoform, or with tags, fused parts or gaps): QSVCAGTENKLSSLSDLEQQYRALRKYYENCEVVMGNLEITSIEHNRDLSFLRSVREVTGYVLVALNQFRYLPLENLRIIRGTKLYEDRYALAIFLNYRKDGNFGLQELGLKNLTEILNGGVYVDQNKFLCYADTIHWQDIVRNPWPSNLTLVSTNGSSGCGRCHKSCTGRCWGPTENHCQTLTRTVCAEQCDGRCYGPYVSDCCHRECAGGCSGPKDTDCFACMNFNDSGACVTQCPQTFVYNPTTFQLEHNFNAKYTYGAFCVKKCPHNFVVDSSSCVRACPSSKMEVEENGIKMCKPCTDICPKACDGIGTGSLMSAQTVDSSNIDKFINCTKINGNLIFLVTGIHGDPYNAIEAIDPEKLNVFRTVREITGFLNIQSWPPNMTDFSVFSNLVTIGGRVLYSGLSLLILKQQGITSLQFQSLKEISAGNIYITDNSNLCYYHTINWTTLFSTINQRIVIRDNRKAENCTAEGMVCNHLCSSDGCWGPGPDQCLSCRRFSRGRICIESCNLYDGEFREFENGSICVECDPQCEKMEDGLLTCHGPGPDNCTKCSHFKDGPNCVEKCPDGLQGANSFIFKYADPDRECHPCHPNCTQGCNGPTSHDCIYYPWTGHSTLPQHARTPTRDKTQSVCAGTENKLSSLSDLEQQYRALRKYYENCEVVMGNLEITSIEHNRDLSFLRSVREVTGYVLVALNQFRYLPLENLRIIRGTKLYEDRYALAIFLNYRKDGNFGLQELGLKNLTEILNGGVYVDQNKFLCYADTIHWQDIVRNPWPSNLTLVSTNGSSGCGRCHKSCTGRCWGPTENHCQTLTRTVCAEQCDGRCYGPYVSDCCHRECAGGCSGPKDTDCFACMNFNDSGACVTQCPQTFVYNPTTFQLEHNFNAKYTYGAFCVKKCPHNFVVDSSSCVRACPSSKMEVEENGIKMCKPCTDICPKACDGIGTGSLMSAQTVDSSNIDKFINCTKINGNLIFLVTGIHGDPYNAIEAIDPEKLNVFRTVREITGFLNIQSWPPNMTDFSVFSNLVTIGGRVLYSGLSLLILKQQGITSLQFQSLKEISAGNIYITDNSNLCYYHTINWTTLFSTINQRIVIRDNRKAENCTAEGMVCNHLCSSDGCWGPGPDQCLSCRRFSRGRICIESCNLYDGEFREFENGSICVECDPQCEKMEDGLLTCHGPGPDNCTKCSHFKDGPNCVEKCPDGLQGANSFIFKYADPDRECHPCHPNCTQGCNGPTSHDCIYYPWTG
ErbB-4 receptor-Ig fusion (human), sequence (Q15303 other isoform, or with tags, fused parts or gaps): as above

B1: HRG11 (HRG-β1 177-230 fused via GGGSGGG to pIII 247, displayed on phage) (ligand, human, not shown: large carriers)
chain: SHLVKCAEKEKTFCVNGGECFMVKDLSNPSRYLCKCPNEFTGDRCQNYVMASFYGGGSGGG
notes: monovalent phage display; also called pHRG11-g3
EC50 [1]: 19 nM

B2: HRG8 (HRG-β1 177-228 fused via (GGGS)3 to pIII 323, displayed on phage) (ligand, human, not shown: large carriers)
chain: SHLVKCAEKEKTFCVNGGECFMVKDLSNPSRYLCKCPNEFTGDRCQNYVMASGGGSGGGSGGGS
notes: monovalent phage display; also called pHRG8-g3; wild-type HRG-β1 EGF-phage
EC50 [2]: 135 nM | EC50 [3]: 163 nM | EC50 [1]: 11 nM | EC50 (wt)/EC50 (mut) [4]: 1 ratio | EC50 (wt)/EC50 (mut) [5]: 1 ratio

B3: HRG5 (HRG-β1 147-244 fused to pIII 247, displayed on phage) (ligand, human, UniProt Q02297-6 147-244, looked up, not shown: large carriers)
chain: YVSSESPIRISVSTEGANTSSSTSTSTTGTSHLVKCAEKEKTFCVNGGECFMVKDLSNPSRYLCKCPNEFTGDRCQNYVMASFYKHLGIEFMEAEELY
notes: monovalent phage display; also called pHRG5-g3
EC50 [1]: 4.7 nM

B4: HRG2 (HRG-β1 177-244 fused to pIII 247, displayed on phage) (ligand, human, UniProt Q02297-6 177-244, looked up, not shown: large carriers)
chain: SHLVKCAEKEKTFCVNGGECFMVKDLSNPSRYLCKCPNEFTGDRCQNYVMASFYKHLGIEFMEAEELY
notes: monovalent phage display; also called pHRG2-g3
EC50 [6]: 13 nM | EC50 [7]: 19 nM | EC50 [1]: 6 nM

B5: recombinantly produced HRG-β1 177-244 (ligand, human, UniProt Q02297-6 177-244, looked up)
chain: B4 chain
EC50 [8]: 9 nM | EC50 [9]: 14.8 nM

B6: HRG-β1 177-244 F216A displayed on phage (ligand, not shown: large carriers; small tags and cut ends)
chain: B4 chain with F40A
notes: from pHRG2-g3; monovalent phage display
EC50 [10]: 500 nM

B7: soluble wild-type HRG-β1 EGF (HRG8) (ligand, human, UniProt Q02297-6 177-228, looked up)
chain: SHLVKCAEKEKTFCVNGGECFMVKDLSNPSRYLCKCPNEFTGDRCQNYVMAS
modifications: ends and bridges not checked; cysteine pairing not given here
KIRA EC50 (ErbB-2 tyrosine phosphorylation on MCF7 cells) [11]: 0.212 nM | EC50 [12]: 0.033 nM

B8: HRG7 (HRG-β1 177-228 fused to pIII 247, displayed on phage) (ligand, human, UniProt Q02297-6 177-228, looked up, not shown: large carriers)
chain: B7 chain
modifications: not fully specified (C-terminus); ends and bridges not checked
EC50 [13]: 42 nM

B9: HRG4 (HRG-β1 147-227 fused to pIII 247, displayed on phage) (ligand, human, UniProt Q02297-6 147-227, looked up, not shown: large carriers)
chain: YVSSESPIRISVSTEGANTSSSTSTSTTGTSHLVKCAEKEKTFCVNGGECFMVKDLSNPSRYLCKCPNEFTGDRCQNYVMA
notes: range 147-227; monovalent phage display; also called pHRG4-g3
EC50 [1]: 38 nM

B10: HRG6 (HRG-β1 177-227 fused to pIII 247, displayed on phage) (ligand, human, UniProt Q02297-6 177-227, looked up, not shown: large carriers)
chain: SHLVKCAEKEKTFCVNGGECFMVKDLSNPSRYLCKCPNEFTGDRCQNYVMA
modifications: not fully specified (C-terminus); ends and bridges not checked
notes: monovalent phage display; Ala227 restored from pHRG1-g3; also called pHRG6-g3
EC50 [1]: 40 nM
